No end group written: not given here.
Assays:
[1] = target: type I collagen of the SIS membrane; test: CLSM, SIS membrane soaked in 200 µM chimeric peptide solution (H-pSIS)
[2] = target: type III collagen of the SIS membrane; test: as above

B1: P9 polypeptide (TKKTLRT+linker-1+Hst1) (peptide)
peptide: TKKTLRTGGGGSGGGGSSHREFPFYGDYGS
modifications: also: fluorescent label FITC or rhodamine B (paragraphs differ), position not given here
- fluorescent area of the SIS membrane [1]: > 85%

B2: P10 polypeptide (TKKTLRT+linker-1+JH8194) (peptide)
peptide: TKKTLRTGGGGSGGGGSKRLFRRWQWRMKKY
modifications: also: fluorescent label FITC or rhodamine B (paragraphs differ), position not given here
- fluorescent area of the SIS membrane [1]: > 85%

B3: P11 polypeptide (KELNLVY+linker-1+Hst1) (peptide)
peptide: KELNLVYGGGGSGGGGSSHREFPFYGDYGS
modifications: also: fluorescent label rhodamine B or FITC (paragraphs differ), position not given here
- fluorescent area of the SIS membrane [2]: > 85%

B4: P12 polypeptide (KELNLVY+linker-1+JH8194) (peptide)
peptide: KELNLVYGGGGSGGGGSKRLFRRWQWRMKKY
modifications: also: fluorescent label rhodamine B or FITC (paragraphs differ), position not given here
- fluorescent area of the SIS membrane [2]: > 85%

Source: patent US20240424167A1
